Experimental data as given in PMC11148156, “Substrate scope expansion of 4-phenol oxidases by rational enzyme selection and sequence-function relations” (Communications Chemistry, 2024).

How the values were obtained:
[1] = target: T1, NspEUGO (Nocardioides sp. YR527, UniProt A0A1G9AL67); assay: xylenol orange assay (initial rate); format: biochemical; details: 2 mM substrate, 50 mM potassium phosphate pH 7.5
T1 construct: gene SAMN05428985_103382; recombinant, expressed in E. coli; flavin-dependent; details in supplement
T1 sequence (A0A1G9AL67 1-529): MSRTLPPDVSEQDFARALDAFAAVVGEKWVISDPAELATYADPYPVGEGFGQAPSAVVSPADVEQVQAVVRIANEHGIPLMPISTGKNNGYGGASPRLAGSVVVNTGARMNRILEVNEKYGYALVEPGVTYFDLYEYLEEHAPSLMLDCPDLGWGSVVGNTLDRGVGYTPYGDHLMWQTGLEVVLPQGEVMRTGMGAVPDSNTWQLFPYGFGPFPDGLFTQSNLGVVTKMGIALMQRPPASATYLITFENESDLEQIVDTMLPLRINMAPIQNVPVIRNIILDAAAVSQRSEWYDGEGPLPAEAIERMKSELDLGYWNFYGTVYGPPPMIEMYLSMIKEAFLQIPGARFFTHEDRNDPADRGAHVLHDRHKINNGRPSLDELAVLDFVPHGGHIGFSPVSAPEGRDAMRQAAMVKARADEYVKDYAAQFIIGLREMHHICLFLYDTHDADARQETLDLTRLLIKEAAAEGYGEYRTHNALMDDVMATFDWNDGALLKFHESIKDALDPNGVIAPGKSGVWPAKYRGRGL

[2] = target: T2, RjEUGO (Rhodococcus jostii, UniProt Q0SBK1); assay: xylenol orange assay (initial rate); format: biochemical; details: 2 mM substrate, 50 mM potassium phosphate pH 7.5
T2 construct: gene RHA1_ro03282; recombinant, expressed in E. coli; flavin-dependent; details in supplement
T2 sequence (Q0SBK1 1-526): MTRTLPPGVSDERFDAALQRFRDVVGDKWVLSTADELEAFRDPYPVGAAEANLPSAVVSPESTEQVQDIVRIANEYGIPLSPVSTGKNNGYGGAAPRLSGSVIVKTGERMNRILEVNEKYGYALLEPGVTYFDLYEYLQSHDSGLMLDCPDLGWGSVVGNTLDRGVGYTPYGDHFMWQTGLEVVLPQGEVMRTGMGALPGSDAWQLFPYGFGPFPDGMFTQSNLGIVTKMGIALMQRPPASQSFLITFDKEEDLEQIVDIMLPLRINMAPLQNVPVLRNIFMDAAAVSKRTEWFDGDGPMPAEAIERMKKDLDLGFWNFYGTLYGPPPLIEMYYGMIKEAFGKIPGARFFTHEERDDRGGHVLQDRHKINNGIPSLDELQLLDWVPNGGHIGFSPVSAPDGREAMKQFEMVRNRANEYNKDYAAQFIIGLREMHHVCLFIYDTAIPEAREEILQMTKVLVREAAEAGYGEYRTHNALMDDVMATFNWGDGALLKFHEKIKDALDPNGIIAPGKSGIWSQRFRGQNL

[3] = substrate: OCc1ccc(O)cc1; assay: Michaelis-Menten kinetics; format: biochemical, Arthrobacter sp. UCD-GKA; details: pH 9.5
[4] = substrate: COc1cc(CO)ccc1O; assay: Michaelis-Menten kinetics; format: biochemical, Arthrobacter sp. UCD-GKA; details: optimal conditions for both enzymes (see supplement)
[5] = substrate: C=CCc1ccc(O)c(OC)c1; assay: Michaelis-Menten kinetics; format: biochemical, Arthrobacter sp. UCD-GKA; details: optimal conditions for both enzymes (see supplement)
[6] = substrate: OCc1ccc(O)cc1; assay: Michaelis-Menten kinetics; format: biochemical, Geodermatophilaceae bacterium; details: pH 9.5
[7] = substrate: COc1cc(CO)ccc1O; assay: Michaelis-Menten kinetics; format: biochemical, Geodermatophilaceae bacterium; details: optimal conditions for both enzymes (see supplement)
[8] = substrate: C=CCc1ccc(O)c(OC)c1; assay: Michaelis-Menten kinetics; format: biochemical, Geodermatophilaceae bacterium; details: optimal conditions for both enzymes (see supplement)

CCCCOCc1ccc(O)c(OC)c1 [compound 13, vanillyl butyl ether]
xylenol orange assay (initial rate) [1]: NspEUGO which is the most active wildtype enzyme on vanillyl butyl ether

Oc1ccc(C2CCCC2)cc1 [compound 42, 4-cyclopentyl phenol]
xylenol orange assay (initial rate) [2]: RjEUGO which was the most active wildtype enzyme for 4-cyclopentyl phenol

B1: AspEUGO (Arthrobacter sp. UCD-GKA) (protein)
chain: MSRIIPLDVSEADFDAALEEFRGALGAQWVLSSPVELEAFADPYPTTNGLEFLPGAVISPSTPEEVQVIVGIANKYKVPLSPVSTGKNLGYGGAAPRLSGTVVVNTGERMNKIIEVNEKYAFALVEPGVTYFDLYNHIQEKGYNLWIDVPDLGWGSIVGNTLDRGVGYTPYGDHWSWQTGLEVVLPDGDLLRTGMGAMSGSDAWQLFPYGFGPYPDGLFSQSNYGIVTKLGIALMPAPPASETFLITFENEADLEQVIDIMLPLRIGMAPLQNVPVLRNIFMDAAAVSHRDEWHAGPGHLSDDEIKTMQRELNLGYWNLYASVYGPPPQIEMFLAMIKEAFLQVPGARFATTKDRPESPEDRGGHVLHDRHKINRGIPTIEERHLMDWVPNGGHTSFSPVSAPDGKDAMRQALMVKKRADEFGQDYAAQFIVGLREMHHICLFLYNTAVPRERDNTLAMARILVEEAADAGYGEYRTHLALMDQVMATFDYNDGALLRFHERVKDALDPNSIMAPGKSGIWGARYRDRGLELLHAPALEDSTPNSA
notes: recombinant, expressed in E. coli; flavin-dependent; details in supplement
Km [3]: 33 ± 2 µM | kcat [3]: 18 ± 1 s⁻¹ | Km [4]: 49 ± 3 µM | kcat [4]: 24 ± 0.8 s⁻¹ | Km [5]: 28 ± 1 µM | kcat [5]: 21 ± 0.4 s⁻¹

B2: GbEUGO (Geodermatophilaceae bacterium) (protein)
chain: MSRILPPELSDSDFDAAIARFRDVVGEKHVLTEDGDLSRYRDPYPVGGQPSGGASAAVAPETSEQVQEIVRIANEYGVPLSPISTGKNNGYGGGQPRLSGAVVVDTGLRMNRILEVNEKFGYALLEPGVSYFDLYEHLQANAPSLMLDCPDLGWGSVVGNTLDRGVGYTPYGDHLMWQTGLEVVLPTGDVMRTGMGAVPGSNAWQLFPYGFGPFPDGLFTQSNLGIVTKMGIALMQRPPASETFVISFDREEDLEQVVDIMLPLRINMAPLQNVPVLRNIILDAGVVSKRTEWHDGDGPLPPEAISRMKAELGLGYWNLYGTVYGPPPVLEAHLGIIKDAFLQVPGSRFATTQDRDEATDRGAHVLHDRHRINNGIPSLDEMKLMEFVPNGGHIGFSPVSAPDGADALRQSQMVRRRADEYRKDYAAQFIVGLREMHHIGLFLFDTTDAVARQETLDLARVLIDEAAAAGYGEYRTHNALMDQVMGTYNWGGDALLKFHETIKDALDPNSVMAPGKSGIWGRKYRDRALA
notes: as for B1
Km [6]: 455 ± 50 µM | kcat [6]: 18 ± 1 s⁻¹ | Km [7]: 31 ± 1 µM | kcat [7]: 16 ± 0.4 s⁻¹ | Km [8]: 23 ± 1 µM | kcat [8]: 23 ± 0.2 s⁻¹
